The record followed here is IntAct's records for PubMed 17586626.

B1: Multidrug resistance protein MexA (Pseudomonas aeruginosa (strain ATCC 15692 / PAO1 / 1C / PRS 101 / LMG 12228)), P52477 (parent)
chain: MQRTPAMRVLVPALLVAISALSGCGKSEAPPPAQTPEVGIVTLEAQTVTLNTELPGRTNAFRIAEVRPQVNGIILKRLFKEGSDVKAGQQLYQIDPATYEADYQSAQANLASTQEQAQRYKLLVADQAVSKQQYADANAAYLQSKAAVEQARINLRYTKVLSPISGRIGRSAVTEGALVTNGQANAMATVQQLDPIYVDVTQPSTALLRLRRELASGQLERAGDNAAKVSLKLEDGSQYPLEGRLEFSEVSVDEGTGSVTIRAVFPNPNNELLPGMFVHAQLQEGVKQKAILAPQQGVTRDLKGQATALVVNAQNKVELRVIKADRVIGDKWLVTEGLNAGDKIITEGLQFVQPGVEVKTVPAKNVASAQKADAAPAKTDSKG
partner: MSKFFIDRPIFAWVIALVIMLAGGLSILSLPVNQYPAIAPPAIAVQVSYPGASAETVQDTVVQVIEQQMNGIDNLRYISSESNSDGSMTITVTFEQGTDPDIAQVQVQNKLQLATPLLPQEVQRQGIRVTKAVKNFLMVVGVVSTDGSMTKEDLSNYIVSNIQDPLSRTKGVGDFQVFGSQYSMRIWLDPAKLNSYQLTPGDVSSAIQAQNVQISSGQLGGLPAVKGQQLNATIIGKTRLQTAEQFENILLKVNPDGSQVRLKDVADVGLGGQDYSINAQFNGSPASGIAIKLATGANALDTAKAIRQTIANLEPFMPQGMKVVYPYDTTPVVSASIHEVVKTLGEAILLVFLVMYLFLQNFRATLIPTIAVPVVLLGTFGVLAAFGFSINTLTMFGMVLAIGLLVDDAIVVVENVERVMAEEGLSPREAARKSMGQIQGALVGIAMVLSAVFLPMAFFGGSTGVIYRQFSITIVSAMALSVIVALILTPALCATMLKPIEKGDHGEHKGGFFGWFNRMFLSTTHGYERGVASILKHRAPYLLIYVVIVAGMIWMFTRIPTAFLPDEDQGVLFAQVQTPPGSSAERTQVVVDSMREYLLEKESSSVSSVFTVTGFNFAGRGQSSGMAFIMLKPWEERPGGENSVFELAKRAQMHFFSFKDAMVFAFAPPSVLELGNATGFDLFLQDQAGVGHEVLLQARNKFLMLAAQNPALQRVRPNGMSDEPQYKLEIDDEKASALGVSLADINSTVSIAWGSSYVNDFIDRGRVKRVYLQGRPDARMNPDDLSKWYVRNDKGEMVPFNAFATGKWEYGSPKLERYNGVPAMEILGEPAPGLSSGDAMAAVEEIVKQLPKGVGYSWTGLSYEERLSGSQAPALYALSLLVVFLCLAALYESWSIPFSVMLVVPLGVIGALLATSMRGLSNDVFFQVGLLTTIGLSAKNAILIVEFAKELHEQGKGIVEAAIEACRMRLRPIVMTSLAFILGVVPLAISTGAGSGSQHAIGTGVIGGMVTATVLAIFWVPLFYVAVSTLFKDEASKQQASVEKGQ
B2: Multidrug resistance protein MexB (Pseudomonas aeruginosa (strain ATCC 15692 / PAO1 / 1C / PRS 101 / LMG 12228)), P52002 (parent)
chain: B1 partner
partner: B1 chain

The variants in one experiment derive from B1. The conditions noted are these: with mexb_pseae mexB, P52002.
As to MQRTPAMRVLVPALLVAISALSGCGKSEAPPPAQTPEVGIVTLEAQTVTLNTELPGRTNAFRIAEVRPQVNGIILKRLFKEGSDVKAGQQLYQIDPATYEADYQSAQANLASTQEQAQRYKLLVADQAVSKQQYADANAAYLQSKAAVEQARINLRYTKVLSPISGRIGRSAVTEGALVTNGQANAMATVQQLDPIYVDVTQPSTALLRLRRELASGQLERAGDNAAKVSLKLEDGSQYPLEGRLEFSEVSVDEGTGSFTIRAVFPNPNNELLPGMFVHAQLQEGVKQKAILAPQQGVTRDLKGQATALVVNAQNKVELRVIKADRVIGDKWLVTEGLNAGDKIITEGLQFVQPGVEVKTVPAKNVASAQKADAAPAKTDSKG [V259F], the “effect of a mutation on the interaction” value is on record as “increasing interaction strength”. On the same count and under the same terms, under MQRTPAMRVLVPALLVAISALSGCGKSEAPPPAQTPEVGIVTLEAQTVTLNTELPGRTNAFRIAEMRPQVNGIILKRLFKEGSDVKAGQQLYQIDPATYEADYQSAQANLASTQEQAQRYKLLVADQAVSKQQYADANAAYLQSKAAVEQARINLRYTKVLSPISGRIGRSAVTEGALVTNGQANAMATVQQLDPIYVDVTQPSTALLRLRRELASGQLERAGDNAAKVSLKLEDGSQYPLEGRLEFSEVSVDEGTGSVTIRAVFPNPNNELLPGMFVHAQLQEGVKQKAILAPQQGVTRDLKGQATALVVNAQNKVELRVIKADRVIGDKWLVTEGLNAGDKIITEGLQFVQPGVEVKTVPAKNVASAQKADAAPAKTDSKG [V66M] stands “increasing interaction strength”.

The variants in a further experiment derive from B2. Particulars: with mexa_pseae mexA, P52477.
On to G220S, for which the “effect of a mutation on the interaction” value is “decreasing interaction strength”.
